{"source": "IntAct's records for PubMed 15143060", "biological_target": "gga1_human GGA1 (UniProt Q9UJY5)", "sequence (Q9UJY5 whole entry)": "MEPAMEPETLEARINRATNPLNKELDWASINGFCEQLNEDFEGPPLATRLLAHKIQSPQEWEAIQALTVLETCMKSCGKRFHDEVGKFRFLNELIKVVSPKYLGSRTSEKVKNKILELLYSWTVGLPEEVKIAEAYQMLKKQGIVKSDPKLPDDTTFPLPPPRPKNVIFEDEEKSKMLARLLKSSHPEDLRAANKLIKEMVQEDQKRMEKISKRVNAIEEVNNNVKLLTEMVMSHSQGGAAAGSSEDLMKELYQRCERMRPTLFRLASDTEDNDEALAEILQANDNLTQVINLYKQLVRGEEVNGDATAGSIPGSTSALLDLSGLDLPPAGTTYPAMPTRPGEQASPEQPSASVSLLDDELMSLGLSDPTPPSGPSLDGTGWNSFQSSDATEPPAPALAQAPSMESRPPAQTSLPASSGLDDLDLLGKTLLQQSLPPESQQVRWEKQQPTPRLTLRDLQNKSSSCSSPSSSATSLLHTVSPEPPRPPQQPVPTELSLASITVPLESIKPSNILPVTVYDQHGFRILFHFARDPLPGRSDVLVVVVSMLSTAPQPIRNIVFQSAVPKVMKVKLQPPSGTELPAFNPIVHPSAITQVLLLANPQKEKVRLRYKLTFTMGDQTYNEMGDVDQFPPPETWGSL", "data": [{"substance": "ADP-ribosylation factor 1 (Homo sapiens), P84077 T32N", "values": [{"measurement": "effect of a mutation on the interaction", "result": "decreasing interaction"}]}]}
